# Results published in the supplement of paper PMC10266784.
# B1: library; numbered along this chain (parent)
# chain: MAAAAAAAAEQQSSNGPVKKSMREKAVERRSVNKEHNSNFKAGYIPIDEDRLHKTGLRGRKGNLAICVIILLFILAVINLIITLVIWAVIRIGPNGCDSMEFHESGLLRFKQVSDMGVIHPLYKSTVGGRRNENLVITGNNQPIVFQQGTTKLSVENNKTSITSDIGMQFFDPRTQNILFSTDYETHEFHLPSGVKSLNVQKASTERITSNATSDLNIKVDGRAIVRGNEGVFIMGKTIEFHMGGNMELKAENSIILNGSVMVSTTRLPSSSSGDQLGSGDWVRYKLCMCADGTLFKVQVTSQNMGCQISDNPCGNTH
# Variants of: B1
# Assay: SGCB cell-surface expression functional score (HA stain, bin4 vs bin1, normalised to synonymous) (log10 ratio); higher = more cell-surface SGCB (functional)
# Summary of the method: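 Codon-saturation libraries of HA-tagged, YFP-fused human beta-sarcoglycan were lentivirally transduced at MOI <0.1 into HEK293 cells stably expressing alpha-, gamma- and delta-sarcoglycan. YFP-positive cells were sorted after 72 hours, grown 5–7 days, stained on ice with Alexa Fluor 647 anti-HA, fixed, sorted into four 5% intensity bins and amplicon-sequenced. The functional score is the log ratio of highest-bin to lowest-bin variant frequency, taken as the median over codons and duplicate transductions. Synonymous variants were scaled per section to mean 0, SD 0.5.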
row,Variant,SGCB cell-surface expression functional score (log10)
1,MAAAAAAAAEQQSSNGPVKKSMREKAVERRSVNKEHNSNFKAGYIPIDEDRLHKTGLRGRKGNLAICVIILLFILAVINLIITLVIWAVIRIGPNGCDSMEFHESGLLRFKQVSDMGVIHPLYKSTVGGRRNENLVITGNNQPIVFQQGTTKLSVENNKTSITSDIGMQFFDPRTQNILFSTDYETHEFHLPSGVKSLNVQKASTERITSNATSDLNIKVDGRAIVRGNEGVFIMGKTIEFHMGGNMELKAENSIILNGSVMVSTTRWPSSSSGDQLGSGDWVRYKLCMCADGTLFKVQVTSQNMGCQISDNPCGNTH [L268W],0.53
2,MAAAAAAAAEQQSSNGPVKKSMREKAVERRSVNKEHNSNFKAGYIPIDEDRLHKTGLRGRKGNLAICVIILLFILAVINLIITLVIWAVIRIGPNGCDSMEFHESGLLRFKQVSDMGVIHPLYKSTVGGRRNENLVITGNNQPIVFQQGTTKLSVENNKTSITSDIGMQFFDPRTQNILFSTDYETHEFHLPSGVKSLNVQKASTERITSNATSDLNIKVDGRAIVRGNEGVFIMGKTIEFHMGGNMELKAENSIILNGSVMVSTTRVPSSSSGDQLGSGDWVRYKLCMCADGTLFKVQVTSQNMGCQISDNPCGNTH [L268V],0.2
3,MAAAAAAAAEQQSSNGPVKKSMREKAVERRSVNKEHNSNFKAGYIPIDEDRLHKTGLRGRKGNLAICVIILLFILAVINLIITLVIWAVIRIGPNGCDSMEFHESGLLRFKQVSDMGVIHPLYKSTVGGRRNENLVITGNNQPIVFQQGTTKLSVENNKTSITSDIGMQFFDPRTQNILFSTDYETHEFHLPSGVKSLNVQKASTERITSNATSDLNIKVDGRAIVRGNEGVFIMGKTIEFHMGGNMELKAENSIILNGSVMVSTTRYPSSSSGDQLGSGDWVRYKLCMCADGTLFKVQVTSQNMGCQISDNPCGNTH [L268Y],-0.02
4,MAAAAAAAAEQQSSNGPVKKSMREKAVERRSVNKEHNSNFKAGYIPIDEDRLHKTGLRGRKGNLAICVIILLFILAVINLIITLVIWAVIRIGPNGCDSMEFHESGLLRFKQVSDMGVIHPLYKSTVGGRRNENLVITGNNQPIVFQQGTTKLSVENNKTSITSDIGMQFFDPRTQNILFSTDYETHEFHLPSGVKSLNVQKASTERITSNATSDLNIKVDGRAIVRGNEGVFIMGKTIEFHMGGNMELKAENSIILNGSVMVSTTRTPSSSSGDQLGSGDWVRYKLCMCADGTLFKVQVTSQNMGCQISDNPCGNTH [L268T],-0.02
5,MAAAAAAAAEQQSSNGPVKKSMREKAVERRSVNKEHNSNFKAGYIPIDEDRLHKTGLRGRKGNLAICVIILLFILAVINLIITLVIWAVIRIGPNGCDSMEFHESGLLRFKQVSDMGVIHPLYKSTVGGRRNENLVITGNNQPIVFQQGTTKLSVENNKTSITSDIGMQFFDPRTQNILFSTDYETHEFHLPSGVKSLNVQKASTERITSNATSDLNIKVDGRAIVRGNEGVFIMGKTIEFHMGGNMELKAENSIILNGSVMVSTTRLISSSSGDQLGSGDWVRYKLCMCADGTLFKVQVTSQNMGCQISDNPCGNTH [P269I],0.5
6,MAAAAAAAAEQQSSNGPVKKSMREKAVERRSVNKEHNSNFKAGYIPIDEDRLHKTGLRGRKGNLAICVIILLFILAVINLIITLVIWAVIRIGPNGCDSMEFHESGLLRFKQVSDMGVIHPLYKSTVGGRRNENLVITGNNQPIVFQQGTTKLSVENNKTSITSDIGMQFFDPRTQNILFSTDYETHEFHLPSGVKSLNVQKASTERITSNATSDLNIKVDGRAIVRGNEGVFIMGKTIEFHMGGNMELKAENSIILNGSVMVSTTRLASSSSGDQLGSGDWVRYKLCMCADGTLFKVQVTSQNMGCQISDNPCGNTH [P269A],-0.23
7,MAAAAAAAAEQQSSNGPVKKSMREKAVERRSVNKEHNSNFKAGYIPIDEDRLHKTGLRGRKGNLAICVIILLFILAVINLIITLVIWAVIRIGPNGCDSMEFHESGLLRFKQVSDMGVIHPLYKSTVGGRRNENLVITGNNQPIVFQQGTTKLSVENNKTSITSDIGMQFFDPRTQNILFSTDYETHEFHLPSGVKSLNVQKASTERITSNATSDLNIKVDGRAIVRGNEGVFIMGKTIEFHMGGNMELKAENSIILNGSVMVSTTRLRSSSSGDQLGSGDWVRYKLCMCADGTLFKVQVTSQNMGCQISDNPCGNTH [P269R],0.75
8,MAAAAAAAAEQQSSNGPVKKSMREKAVERRSVNKEHNSNFKAGYIPIDEDRLHKTGLRGRKGNLAICVIILLFILAVINLIITLVIWAVIRIGPNGCDSMEFHESGLLRFKQVSDMGVIHPLYKSTVGGRRNENLVITGNNQPIVFQQGTTKLSVENNKTSITSDIGMQFFDPRTQNILFSTDYETHEFHLPSGVKSLNVQKASTERITSNATSDLNIKVDGRAIVRGNEGVFIMGKTIEFHMGGNMELKAENSIILNGSVMVSTTRLESSSSGDQLGSGDWVRYKLCMCADGTLFKVQVTSQNMGCQISDNPCGNTH [P269E],0
9,MAAAAAAAAEQQSSNGPVKKSMREKAVERRSVNKEHNSNFKAGYIPIDEDRLHKTGLRGRKGNLAICVIILLFILAVINLIITLVIWAVIRIGPNGCDSMEFHESGLLRFKQVSDMGVIHPLYKSTVGGRRNENLVITGNNQPIVFQQGTTKLSVENNKTSITSDIGMQFFDPRTQNILFSTDYETHEFHLPSGVKSLNVQKASTERITSNATSDLNIKVDGRAIVRGNEGVFIMGKTIEFHMGGNMELKAENSIILNGSVMVSTTRLMSSSSGDQLGSGDWVRYKLCMCADGTLFKVQVTSQNMGCQISDNPCGNTH [P269M],-0.48
